Target: CD3ζ subunit of the T cell receptor (TCR) in nonactivated Jurkat T cells (human (endogenous in Jurkat)) (UniProt P20963)
Test: single-molecule localization microscopy (DNA-PAINT with qPAINT counting); nonactivated Jurkat T cells, TIRF; stepwise model: Ka,j of a monomer joining a cluster of j-1 proteins, from the distribution of cluster sizes, j = 2 to 8, average of eight cells

CD3ζ subunit of the T cell receptor (TCR) in nonactivated Jurkat T cells (from UniProt P20963-1 22-164)
log Ka,j (stepwise association of a monomer to a cluster, j = 2-8) (log, μm^2 scale): -1.4

— PMC11528428
